Experimental data as given in patent US20190307868A1 (published 2019).

Biological target: HLA-B08:01 (human)
Experiment: peptide-MHC-I complex dissociation half-life, 125I-b2m, 37 C
Description: Briefly, synthetic genes encoding biotinylated MHC-I heavy and light chains are expressed in E. coli and purified from inclusion bodies using standard methods. The light chain (β2m) is radio-labeled with iodine (¹²⁵I), and combined with the purified MHC-I heavy chain and peptide of interest at 18° C. to initiate pMHC-I complex formation. These reactions are carried out in streptavidin coated microplates to bind th biotinylated MHC-I heavy chains to the surface and allow measurement of radiolabeled light chain to monitor complex formation. Dissociation is initiated by addition of higher concentrations of unlabeled light-chain and incubation at 37° C. Stability is defined as the length of time in hours it takes for half of the complexes to dissociate, as measured by scintillation counts

QVYRRKHQEL [QVYRRKHQEL (EML4:ALK)]
Stability (T1/2 (h)): 0 h
